Results reported in the DeepSol protein solubility set.

Experiment: soluble on expression in E. coli; label from the status in PepcDB or PDB records

Soluble on expression in E. coli, not soluble:
NKDMEFTLRANFTYSTNKVNYYEEGDTKYEYTSATGRPNGYMKGYIALGLFKDQEEINNSPKQDFGSYLPGDIKYKDVNGDGVVNSDDQVPVSYQDYPRLMYGFGGEFRWKKLTLGVRFSGIGNTDYYKIWTWGSNNVGYIPFYDGKLGNVLTIAANPANRWIPADYDDPSIPASMRENPNAMFPRLSYGSNQNNAQASTFWKGNRKYLRLDEISLNYNCNCNLLKSIGINSIDLAVVANDLHTWDSVKLFDPELATSNGRAYPIPGRVSFQAIVHF
MTTKLQKRVNDLDEDIPRPPFSSHSDKTEDKEGVSEACPVCEKTVQNPCVLETGYVACYPCAISYLVNNEGHCPVTNKKLLGCTYNKHTNKWEVVTGIRKLLI
MSEKTFLVEIGTEELPPKALRSLAESFAANFTAELDNAGLAHGTVQWFAAPRRLALKVANLAEAQPDREIEKRGPAIAQAFDAEGKPSKAAEGWARGCGITVDQAERLTTDKGEWLLYRAHVKGESTEALLPNMVATSLAKLPIPKLMRWGASDVHFVRPVHTVTLLLGDKVIPATILGIQSDRVIRGHRFMGEPEFTIDNADQYPEILRERGKVIADYEERKAKIKADAEEAARKIGGNADLSESLLEEVASLVEWPVVLTAKFEEKFLAVPAEALVYTMKGDQKYFPVYANDGKLLPNFIFVANIESKDPQQIISGNEKVVRPRLADAEFFFNTDRKKRLEDNLPRLQTVLFQQQLGTLRDKTDRIQALAGWIAEQIGADVNHATRAGLLSKCDLMTNMVFEFTDTQGVMGMHYARHDGEAEDVAVALNEQYQPRFAGDDLPSNPVACALAIADKMDTLAGIFGIGQHPKGDKDPFALRRAALGVLRIIVEKNLNLDLQTLTEEAVRLYGDKLTNANVVDDVIDFMLGRFRAWYQDEGYTVDTIQAVLARRPTRPADFDARMKAVSHFRTLEAAAALAAANKRVSNILAKSDEVLSDRVNASTLKEPEEIKLAMQVVVLRDKLEPYFAEGRYQDALVELAELREPVDAFFDKVMVMVDDKELRLNRLTMLEKLRELFLRVADISLLQ
GPGSMYKLPIEAQFNLIEEEFAAIEASTMNPRLYNFTTSNANPTKNRYINVLANEETIFPPTSLTSAPPTTGGSRLSTSGSPPSMASAPSPMKSLTGRAQKIWGVAGQRLFGTRRGGTLPRDVEGNEKFTTGCVTKKYPQWYINANVVDTSVEPVFVASQAPVQECIDDFLAVIYSCEVTLVLMLTELEEAGFVKADRYWPEDSAPADRIESFGSMCVYKDEQDPYTCDAAHELVRRSFYIRPSAASQARAHKIVMYQYVGWPDRGVPDSTESFEELLKIIQGYVMASPAPRVPAAGPESAAHSSIATNSGGDGSTSNTGSGEGSGKLTPPVFVHCSAGIGRTGTLIGAYTAVKLTEAGLLTNTSIRRIVTDMRKARFGMVQRVEQYMFLYMIVLQHMGVDARKFSARMQPRADLYNMRWMEARQKALLGARAAKR
TPAQLISIAVTPINPSVAKGLIRQFKATGTYTDHSVQDVTALATWSSSNPGKAMVNNVTGSVTTVATGNTNIKATIDSISGSSVLNVTPALLTSIEITPTINSITHGLTKQFKATGIFSDKSTQNLTQLVTWISSDPSKIEIENTSGKKGIATASKLGSSNIKAVYKFIQSSPIPITVTDLKLKSITISPSSSSIAKGLTQQFKAIGTFIDGSEQEITNLVTWYSSKSDVAPINNAANAKGLATALSIGSSNISAIYNSISSNKINFNVSAATLDSIKINPVNNNIAKGLTQQYTALGVYSDSTIQDISDSVTWSSSNSDSISISNSTETKGKATALQIGNSKITATYNSISENIDITVSAATL
MGHHHHHHSHMAQLMEVLSVTPTQSPENNDLISYNSVWVACQQMPQIPRDNKAAALLMLTKNVDFVKDAHEEMEQAVEECDPYSGLLNDTEENNSDNHNHEDDVLGFPSNQDLYWSEDDQELIIPCLALVRASKACLKKIRMLVAENGKKDQVAQLDDIVDISDEISPSVDDLALSIYPPMCHLTVRINSAKLVSVLKKALEITKASHVTPQPEDSWIPLLINAIDHCMNRIKELTQSELEL
MRSIPLCQLLLLLTILSIDARPSDHFLSFSKTELCAAEPHLKVCQPNSRAQSSKIINGDGLTAERLEQLSKHSNKGFIEEEANSGRSSAASNVDDPFEDVATRAPPSSNEYEEERYSHRKHKHHHRKSHRGHHYGSPYQQYYQQQQHHDPLTYRVYPGLHPKDGRYCSDMKGMFAYTCAPSKPLRIDLVEFCKDYAAFCNVPNFHRLPGPRMGPPLTDKGVGHVDVNGHFGFGVGAVPGLEVGVGWGVDVGPIPGMGESVGVGVGLDLGIMGSKTPEAFRRGQDDPNAKGGGIVGINGGVGVKAPGTGDGVGVGTGLGVGK
NKMPVIEVQGIVPTEIIVSPRYYRMGFVGGDLSVPVGQFVFRGEAAFNIDKHFTYKSHAEQEGFQTINWLAGADWYAPGEWMISGQFSMESIFRYRDFISQRQHSTLITLNVSKKFFGSTLQLSDFTYYDLTGKGWFSRFAADYALNDQIHLMAGYDWFSSKGSGIFDRYKDNSELWFKARYSF
MGSDKIHHHHHHMGPINFEKAKKEREQAVIARLIDIRKAQQEYRSLHHGMYTEHFDTLIDFVKNQKLPFVMKVGQLTDDQLESGLTEKKAMAIINKAKKTGKYDEVKKNGLENFKRDTMWVAVMDTIYPKGFNADSMKYIPYGNGAIFEMNVKNDTAKSGAPVYLFEVKAPYETYLGGLDRQEIINLKDLNEKLGRYSGLMVGSIDNPNNGAGNWE
MKTPSLILMTIILCNLSIPINAQILTSRQQKEDFDTLYSLLHQVHPDLFVYQTQKEFEKKHDSIYCLLNKERNLSDFYFIVSPFVASVKDGHTNFTIPATQDRIDYLNNGGLTLPLRLKIVENKILVDFPLISCSIQENDEIICMNNINSQTILSQLYLLLGAEKGNAIKENQLTSYLSTLLWYKYNWGEKYDFTIKRGKKIWKESLNGISQADAFPVLKARLGKSLPQFVYTLSPDKQTATLQIMNLYQLPQLKQFCDSVFSVINREHVPNLVIDVRNNKGGSSAGVDMLLSYLSHDAYILYIKTDLKISSYSKRYNEQKHPETYEEIKNLPDGSLFAIRDSFVEGNRDKADIYKGSVTVLVNESTYSGASTFASAIKKSHAGKVLGETGCPTVYFGNYMSFTLPNSRLEYYISLNKFYE

Soluble on expression in E. coli, soluble:
MDWGTELWDQFEVLERHTQWGLDLLDRYVKFVKERTEVEQAYAKQLRSLVKKYLPKRPAKDDPESKFSQQQSFVQILQEVNDFAGQRELVAENLSVRVCLELTKYSQEMKQERKMHFQEGRRAQQQLENGFKQLENSKRKFERDCREAEKAAQTAERLDQDINATKADVEKAKQQAHLRSHMAEESKNEYAAQLQRFNRDQAHFYFSQMPQIFDKLQDMDERRATRLGAGYGLLSEAELEVVPIIAKCLEGMKVAANAVDPKNDSHVLIELHKSGFARPGDVEFEDFSQPMNRAPSDSSLGTPSDGRPELRGPGRSRTKRWPFGKKNKTVVTEDFSHLPPEQQRKRLQQQLEERSRELQKEVGQREALKKMKDVYEKTPQMGDSASLEPQIAETLSNIERLKLEVQKYEAWLAEAESRVLSNRGDSLSRHARPPDPPASAPPDSSSNSASQDTKESSEEPPSEESQDTPIYTEFDEDFEEEPTSPIGHCVAIYHFEGSSEGTISMAEGEDLSLMEEDKGDGWTRVRRKEGGEGYVPTSYLRVTLN
MDNLVDIDEDGTQEKLSVNSTPYQTQECVLYGSIFAKNVPDLERRLAGLCDPGCEEFFEHEMSFSLRSSGIMDIKTDIKLRRRFRTEHRIQNYWQLKYIGVPEPDQKCPTIVRKEISSLVHSQDMMTYAKSLGLRMDYEYMTQGKLWTKGNIKILHSILTSTSRAGTYDSNSIKSVSDSALVEISISLPESAEYMPAAKSLRDFADQLMPLVNMEKVDYWKKMFPAQAAPRR
DEPKVLIAEVVVEGATPELEQLVYQVISTRPGSTTTRTQLQQDTNAIFATGFFADVNAVPRDTPLGVRITFVVRPYPVLRAVQVAGNQVLTQEKVNEIFAPQIGRTLNLRELQAGIEKINTFYRDNGYILGQVVGTPQVDPDGVVTLQVAEGVVEQVTYRFLNKEGEPTKQRTRDFVISREMDTQPGVVLNQKTVQADLRRLFELGLFEDVQVALEPGQNPRRVNLILNIKERNT
MHHFSTGSSSAIIASSSSSSSSSNGYGHSPRDLLTGAAVANGGGGGFGGVAGVAFATTSPPTPVNLDVQRIDCTDETTVVMVKLTDEMFAALQESQRSGKPLRINVNDKEGRVEIGDGTASSKTNNTFYFQKQTVPEQTDTLVHSGGGVRNVGTYKTKYQIQATDRSFQETKKRAELRAEVEKSRGTKQMKKSGVTSSSSRYHNSSNSTPRSMNSAPNSSRVSPSFMSSSSSKASTSHVTTNNSKGTPNNGSESKKIDMTPQLMKHSIKKRIIHLIVTQKYSNWEEVYKKLKSDGLPEEKDEIEKIRSCVEEVSETRPEMSVMSLRTSFLSEVDQRWMFFNQEEKSHVRRLCNSGSRVGPTDNNFAPLRKKGMERITASSKTEKDKVKEKLEEAAKIPSPPKDQKSLPSIVEEDDYYTAPPEPANKRRAHNLAPPPPPPVQVVTPQTTSSQTETGPLPPKRTKRPESSSPQLERSSQPASKLNPIKLAATIAMQPIPKCDPPPPPPSRDTYHHNVASVAVNGGGSTASSRVSSPASSLSSPSQPSCNWEKQFGDIKTLSEAEAYFKQFHKEYPLYMECHEMLTKVSSEFRGLEVKLLTAVALSKTSPSPQNMQNVKQIEKNIQNRYAHFEKDPEFMKARQRHTDLRSKLNVLKTRIGSWEKMRRQSSTNV
MGHHHHHHHHHHSSGHIEGRHMEANGLGPQGFPELKNDTFLRAAWGEETDYTPVWCMRQAGRYLPEFRETRAAQDFFSTCRSPEACCELTLQPLRRFPLDAAIIFSDILVVPQALGMEVTMVPGKGPSFPEPLREEQDLERLRDPEVVASELGYVFQAITLTRQRLAGRVPLIGFAGAPWTLMTYMVEGGGSSTMAQAKRWLYQRPQASHQLLRILTDALVPYLVGQVVAGAQALQLFESHAGHLGPQLFNKLALPYIRDVAKQVKARLREAGLAPVPMIIFAKDGHFALEELAQAGYEVVGLDWTVAPKKARECVGKTVTLQGNLDPCALYASEEEIGQLVKQMLDDFGPHRYIANLGHGLYPDMDPEHVGAFVDAVHKHSRLLRQN
EKEKKNVFMRTFEAISRNFSEIFAKLSPGGSARLILENPEDPFSGGLEIEAKPAGKDVKRIEAMSGGEKALTALAFVFAIQKFKPAPFYLFDEIDAHLDDANVKRVADLIKESSKESQFIVITLRDVMMANADKIIGVSMRDGVSKVVSLSLEKAMKILEEIRKKQGWEHGN
MSQIIWGAYAQRNTEDHPPAYAPGYKTSVLRSPKNALISIAETLSEVTAPHFSADKFGPKDNDLILNYAKDGLPIGERVIVHGYVRDQFGRPVKNALVEVWQANASGRYRHPNDQYIGAMDPNFGGCGRMLTDDNGYYVFRTIKPGPYPWRNRINEWSPAHIHFSLIADGWAQRLISQFYFEGDTLIDSCPILKTIPSEQQRRALIALEDKSNFIEADSRCYRFDITLRGRRATYFENDLT
MRGSMGAMHVLTLDLAPVTPKDAPLLHRVFHLSPSYFALIGMELPTLEDVVRDLQTLEVDPRRRAFLLFLGQEPVGYLDAKLGYPEAEDATLSLLLIREDHQGRGLGRQALERFAAGLDGVRRLYAVVYGHNPKAKAFFQAQGFRYVKDGGPTLTWYVRPL
